Here are results for one molecule from patent US20110177056A1.

This assay addresses EGF receptor (ErbB1) on A431 cells (UniProt P00533). The assay is described as follows: cell-based or functional assay.

B1: EGF variant v3 (EGFv3) (ligand)
chain: NSDPKCPLSHEGYCLNDGVCMYIGTLDRYACNCVVGYVGERCQYRDLKLAELR
In turn, B1 displayed a pEC50 (phosphoY1068 EGF receptor, MSD electrochemiluminescence, A431 cells) of 7.61 pEC50.
